Legend:
[1] = tested on: MS2 coat protein; experiment: apparent KD of MS2 coat protein; designed switch direction (-1 OFF switch, 1 ON switch): 1; higher = weaker reporter binding
In short: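 Each step of the titration lasted 0.8–1.5 h at the lowest concentration and 10–20 min at the highest. The protein, SNAP-549-labelled MS2 coat protein, went from 0.7 or 1.5 nM doubling to 3 µM over RNA switches transcribed on Illumina chips by stalled E. coli RNA polymerase. Normalised cluster fluorescence was curve-fitted, and the per-design median over clusters is given as apparent KD.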

[2] = tested on: MS2 coat protein; experiment: apparent KD of MS2 coat protein; higher = weaker reporter binding; details: Eterna round: R107
In short: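 Designed RNA switches were transcribed on-chip from Illumina sequencing clusters and titrated with SNAP-549-labelled MS2 coat protein in twofold steps from 0.7 or 1.5 nM up to 3 µM. Each step lasted 0.8–1.5 h at first and 10–20 min by the end, in 100 mM Tris-HCl pH 7.5, 80 mM KCl and 4 mM MgCl2, without or with constant ligand. Apparent KD is the median, for each design, of fits to normalised cluster binding curves.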

[3] = input ligand: microRNA oligo, concentration not stated
[4] = Eterna round: R95, input ligand: FMN 200 uM
[5] = Eterna round: R95, input ligand: microRNA oligo, concentration not stated
[6] = Eterna round: R95, input ligand: none
[7] = input ligand: theophylline 20 uM
[8] = input ligand: theophylline 2 mM
[9] = input ligand: tryptophan 2.4 mM

AAAACAUGAGGAUCACCCAUGUGUAAAAGAUACCGGAUGGUGCAGGAUAUAUCCCAUUAAAGUGGAUAGAAGGGUGGCAUCAAG [Eternabot solution 46] (Eterna round: R96, puzzle: Same State NG 3)
apparent KD of MS2 coat protein ([1]; input ligand: FMN 200 uM): 20.8 nM | apparent KD of MS2 coat protein [1, 3]: 32.5 nM | apparent KD of MS2 coat protein ([1]; input ligand: none): 32.1 nM

AAACACAUGAGGAUCACCCAUGUAGCACCAUUGAGGCGCACAUAGGAUAUCCGGUCCAAAAGACCGGAGAAGGGUGAAAGAAAA [Veandi] (Eterna round: R96, puzzle: Same State NG 3)
apparent KD of MS2 coat protein ([1]; input ligand: FMN 200 uM): 59.7 nM | apparent KD of MS2 coat protein [1, 3]: 371 nM | apparent KD of MS2 coat protein ([1]; input ligand: none): 328 nM

AAACAUGAGCGAGGAUAUGCAGAGGAUCACCCUGUAGAAGGCGCAUGUAAAACAACAUGAGGAUCACCCAUGUCAUGUACAUGA (Eterna round: R96, puzzle: Same State NG 1)
apparent KD of MS2 coat protein ([1]; input ligand: FMN 200 uM): 19.4 nM | apparent KD of MS2 coat protein [1, 3]: 15.3 nM | apparent KD of MS2 coat protein ([1]; input ligand: none): 20.2 nM

AAACGGUCGCUGCGGCAACCACAUGAGGAUCACCCAUGUACAUAGGAUAUCGCCUAAAAUACUGGCGAGAAGGGUGAUUAAAGA [Onbiriza] (Eterna round: R96, puzzle: Same State NG 3)
apparent KD of MS2 coat protein ([1]; input ligand: FMN 200 uM): 28.7 nM | apparent KD of MS2 coat protein [1, 3]: 17.9 nM | apparent KD of MS2 coat protein ([1]; input ligand: none): 73.7 nM

AAAGAAAACGCAGGAUAUCCCGGAAAAGAUCCGGGAGAAGGGUGACCGGUACAUGAGGAUCACCCAUGUAGAGCAAAGGCUCAA [Ceonbeti] (Eterna round: R96, puzzle: Same State NG 1)
apparent KD of MS2 coat protein ([1]; input ligand: FMN 200 uM): 232 nM | apparent KD of MS2 coat protein [1, 3]: 133 nM | apparent KD of MS2 coat protein ([1]; input ligand: none): 128 nM

AACAAUCUAUCUGAGGAUAUCAUGAAUAAAACAUGAGGAUCACCCAUGUGCAGGAAAACUGCAUAUGAGAAGGCAGAUAGAUUGU [Mat - Same State 2 - Mod - D11] (puzzle: Same State 2)
apparent KD of MS2 coat protein [1, 4]: 69.3 nM | apparent KD of MS2 coat protein [1, 5]: 2610 nM | apparent KD of MS2 coat protein [1, 6]: 2140 nM

AACAAUCUAUCUGAGGAUAUCAUGAAUUAAACAUGAGGAUCACCCAUGUGCAGGAAAACUGCAUAUGAGAAGGCAGAUAGAUUGA [salish99_ss2_r3_032] (puzzle: Same State 2)
apparent KD of MS2 coat protein [1, 4]: 40.2 nM | apparent KD of MS2 coat protein [1, 5]: 707 nM | apparent KD of MS2 coat protein [1, 6]: 58.7 nM

UGUAUGUGAUCUGAUACCAGUCCAACUGGUAAAGCAUGAGGAUCACCCAUGUAAAAUUGGGACCCUUGGCAGCAGAUCGCAUACU
apparent KD of MS2 coat protein ([2]; input ligand: arginine 13.2 mM): 146 nM | apparent KD of MS2 coat protein ([2]; input ligand: none): 166 nM | apparent KD of MS2 coat protein [2, 7]: 190 nM | apparent KD of MS2 coat protein [2, 8]: 316 nM | apparent KD of MS2 coat protein [2, 9]: 138 nM

UGUCAGCGAAAGUUGACAUGCAGUGCCGGUCGAGGACCGGUACGGCCGCCACUCGAUCUCUCGUACAUGAGGAUCACCCAUGUCG [SS Tryp A #19]
apparent KD of MS2 coat protein ([2]; input ligand: arginine 13.2 mM): 14.4 nM | apparent KD of MS2 coat protein [2, 7]: 16.6 nM | apparent KD of MS2 coat protein [2, 8]: 14.9 nM

UGUCAGCGAAAGUUGACAUGUUGAACCGGUCGAGGACCGGUACGGCCGCCACUCGAUCUCUCGUACAUGAGGAUCACCCAUGUCG [SS Tryp A #18]
apparent KD of MS2 coat protein ([2]; input ligand: arginine 13.2 mM): 11.9 nM | apparent KD of MS2 coat protein [2, 7]: 14 nM | apparent KD of MS2 coat protein [2, 8]: 11.7 nM

UGUCAUGGAAACAUGACUGGUUCUACCGGUCGAGGACCGGUACGGCCGCCACUCGAUUGGUGGCACAUGAGGAUCACCCAUGUUA [SS Tryp A #14]
apparent KD of MS2 coat protein ([2]; input ligand: arginine 13.2 mM): 26.2 nM | apparent KD of MS2 coat protein [2, 7]: 51.9 nM | apparent KD of MS2 coat protein [2, 8]: 33.9 nM

UGUCCUCAUGCGGCCGCCACUGUCGGCCGCCACUAAACAUGAGGAUCACCCAUGUAGGACCGGGACAGGACCGGGCAUGGGUGCU [TryBS - #DoubleAptamer]
apparent KD of MS2 coat protein ([2]; input ligand: arginine 13.2 mM): 132 nM | apparent KD of MS2 coat protein ([2]; input ligand: none): 102 nM | apparent KD of MS2 coat protein [2, 7]: 232 nM | apparent KD of MS2 coat protein [2, 8]: 244 nM | apparent KD of MS2 coat protein [2, 9]: 319 nM

UGUGCAGGAUGCGUAAAGGGUCUUGGGCAUCGAGGACCGGUACGGCCGCCACUCGGCUGUACAUGAGGAUCACCCAUGUCAGGGU [#1 Same State - Tryptophan A Attempt #20 (HarryS)]
apparent KD of MS2 coat protein ([2]; input ligand: arginine 13.2 mM): 90.8 nM | apparent KD of MS2 coat protein ([2]; input ligand: none): 226 nM | apparent KD of MS2 coat protein [2, 7]: 1060 nM | apparent KD of MS2 coat protein [2, 8]: 393 nM | apparent KD of MS2 coat protein [2, 9]: 271 nM

UUAAUCGUGCAUGAUACCAGUAUCCGUAGAUACAUGAGGAUCACCCAUGUCUGGUUGGAAUACCCUUGGCAGCAUGGGUUGAGGA [theeternabot_sameState_MS2_Theo_B_20]
apparent KD of MS2 coat protein ([2]; input ligand: arginine 13.2 mM): 37.1 nM | apparent KD of MS2 coat protein [2, 7]: 224 nM | apparent KD of MS2 coat protein [2, 9]: 238 nM

UUACACAUCUCGGCCGCCACUGGCUUCAAAAUAAUGUGUACAUGAGGAUCACCCAUGUCCGAGCUCAGGACCGGGAGCAAAGAAG [SS Tryp B #14]
apparent KD of MS2 coat protein ([2]; input ligand: arginine 13.2 mM): 21.1 nM | apparent KD of MS2 coat protein [2, 7]: 29.2 nM | apparent KD of MS2 coat protein [2, 8]: 28.4 nM

UUACAUGAGGAUCACCCAUGUCAUACAGAAGGAGCGUCACAUAAGACAGGUAGGUCGCUGUUAUUUCAUACUGUUAUAUCCUCUA [JR_Nu_ExcArginiA_Sub029]
apparent KD of MS2 coat protein ([2]; input ligand: arginine 13.2 mM): 30.1 nM | apparent KD of MS2 coat protein ([2]; input ligand: none): 40.3 nM | apparent KD of MS2 coat protein [2, 7]: 56.2 nM | apparent KD of MS2 coat protein [2, 8]: 47.1 nM | apparent KD of MS2 coat protein [2, 9]: 40 nM

UUAGAUAUGACAGAUACCAGCGUGUUGUAGAACAUGAGGAUCACCCAUGUAGUGAUCGUGCGCCCUUGGCAGCUGGUAUGUUUGG [7.W]
apparent KD of MS2 coat protein ([2]; input ligand: arginine 13.2 mM): 148 nM | apparent KD of MS2 coat protein [2, 7]: 341 nM | apparent KD of MS2 coat protein [2, 9]: 788 nM

UUAUAUUCUCAAUCGCCAUGUGCUUUAGAUACCAGUCUGAUAAAUGACCCUUGGCAGCUAGAGACAUGAGGAUCACCCAUGUCUU [theeternabot_exclusion_MS2_Theo_A_8]
apparent KD of MS2 coat protein ([2]; input ligand: arginine 13.2 mM): 11.3 nM | apparent KD of MS2 coat protein [2, 7]: 13.9 nM | apparent KD of MS2 coat protein [2, 9]: 11.2 nM

UUAUGCAGGUCGGCCGCCACUACACACAUGAGGAUCACCCAUGUAGUUACUGGGUGAAGUGGCAGUAGGACCGGGACCUGCAUAC [Brourdmod06]
apparent KD of MS2 coat protein ([2]; input ligand: arginine 13.2 mM): 55.4 nM | apparent KD of MS2 coat protein [2, 7]: 396 nM | apparent KD of MS2 coat protein [2, 8]: 877 nM

UUCUACAUGAGGAUCACCCAUGUGGGUGAUACCAGCACUUUUUGGUGCCCUUGGCAGCACAUGAGAAUACCGUACGAUCGGUGAU [Isbiti]
apparent KD of MS2 coat protein ([2]; input ligand: arginine 13.2 mM): 103 nM | apparent KD of MS2 coat protein [2, 7]: 559 nM | apparent KD of MS2 coat protein [2, 9]: 508 nM

UUGACAUGAGGAUCACCCAUGUCAAAGGCACGAGGACCGGUACGGCCGCCACUCGUGGUCUAUGGCUGGUGGACUCGUGUCUCGG [Soisusdira]
apparent KD of MS2 coat protein ([2]; input ligand: arginine 13.2 mM): 12.2 nM | apparent KD of MS2 coat protein ([2]; input ligand: none): 12 nM | apparent KD of MS2 coat protein [2, 7]: 16 nM | apparent KD of MS2 coat protein [2, 8]: 16.8 nM | apparent KD of MS2 coat protein [2, 9]: 10.8 nM

UUGCUCUCUUCGGCCGCCACUACACGCGAGUUGACGACUGGCGGACAUGAGGAUCACCCAUGUCAUAGGACCGGGAAUCACGCUG [theeternabot_sameState_MS2_Trp_B_11]
apparent KD of MS2 coat protein ([2]; input ligand: arginine 13.2 mM): 11.5 nM | apparent KD of MS2 coat protein [2, 7]: 15.9 nM | apparent KD of MS2 coat protein [2, 8]: 15.2 nM

UUGUACGAAACUGAUACCAGCCAGCAAUGCCACCAAGAGCACAUGAGGAUCACCCAUGUUGGCCCUUGGCAGCAGGACAAUAAGC [theeternabot_exclusion_MS2_Theo_B_3]
apparent KD of MS2 coat protein ([2]; input ligand: arginine 13.2 mM): 7.44 nM | apparent KD of MS2 coat protein [2, 7]: 10.6 nM | apparent KD of MS2 coat protein [2, 9]: 8.91 nM

UUUAACAAGAACGUCCUGAGUGACAAGCUACGAGGACCGGUACGGCCGCCACUCGUACCAAAACAUGAGGAUCACCCAUGUUAAA [theeternabot_exclusion_MS2_Trp_A_44]
apparent KD of MS2 coat protein ([2]; input ligand: arginine 13.2 mM): 13.4 nM | apparent KD of MS2 coat protein [2, 7]: 19.3 nM | apparent KD of MS2 coat protein [2, 8]: 21.1 nM

UUUAAGAACCGAAGGAGCGCCAGAAAUAAGAACGCUACAUGAGGAUCACCCAUGUAAUAAGGGCAGGUAGGUCGCGGAAUUUAAA [last]
apparent KD of MS2 coat protein ([2]; input ligand: arginine 13.2 mM): 17.9 nM | apparent KD of MS2 coat protein ([2]; input ligand: none): 21.2 nM | apparent KD of MS2 coat protein [2, 7]: 33.4 nM | apparent KD of MS2 coat protein [2, 8]: 24.7 nM | apparent KD of MS2 coat protein [2, 9]: 21.4 nM

UUUGAUAGGACAGAUACCAGCGUGUUGUUGAACAUGAGGAUCACCCAUGUAGUGAUCGAGCGCCCUUGGCAGCUGGUUUGUUAGG [7.O]
apparent KD of MS2 coat protein ([2]; input ligand: arginine 13.2 mM): 102 nM | apparent KD of MS2 coat protein [2, 7]: 434 nM | apparent KD of MS2 coat protein [2, 9]: 307 nM

UUUUAAAGCAUGGCGUAUCGGAAAACCGAUACCAGUACAGAAAUGUACCCUUGGCAGCGGCAUUUUACAUGAGGAUCACCCAUGU [Ex Theophylline A 2]
apparent KD of MS2 coat protein ([2]; input ligand: arginine 13.2 mM): 16 nM | apparent KD of MS2 coat protein [2, 7]: 18.4 nM | apparent KD of MS2 coat protein [2, 9]: 14.5 nM
